experiment: soluble on expression in E. coli; label from the status in PepcDB or PDB records

| Sequence | soluble on expression in E. coli |
| --- | --- |
| MLALSRGRYLARPAAGLEDLRRAQELRWLAFHARRAGSGASGLDADRFDGACSHMLIEEAESGALVGCFRFLTFASGREIGRSYSAQFYELSALEGFAGPMVEMGRFCIHPDRRDPDILRVAWGALTQHVDRAGIEMLFGCSSFHGTEPEAYLDTFAMLKERHLAPPRWLPRVKAASVYRFAQRLARREPDARRAMLQMPPLLRTYLMMGGWVSDHAVVDREMDTLHVFTGLEIGAIPARRARALRAVAG | not soluble |
| MLANFSQKAQETLVGELEELVSTTNLKGVITYCNDAFCRVAEYTHEELVGQNHNIVRHSDMPKAAFGDMWARLKEGKAWRGMVKNSTKSGGYYWVDAYVTPIYEKNQVVGYQSVRVKPKREWVDIAAKAYKGMLAAEKAGRTWSLKINETVRYAILLGALTAPAVAYALSVEGPLAWLASALPASVLALLFRQELIDTPQQLKKLQKQYDSVSRLIYSGNSAFSIADFHIKMLSARIRTVLGRMTDSALPLQNCAEELSQTTSEVSAALNQQNSDIRRVRDATQEVESSANSVSSSTNDAHMLIDDTLKSCMMAKETIDQTHTNLAQLSLQA | not soluble |
| MLARSDRLSVVAVVEGTRKQPDPATFIGKGKAEEISQILAQTHAAMVIFNHELSPVQQRNLSMVLACRIIDRTSLILEHHHHHH | not soluble |
| MLAVGIVGLPNVGKSTLFNALTRANALAANYPFATIDKNVGVVPLEDERLYALQRTFAKGERVPPVVPTHVEFVDIAGLVKGAHKGEGLGNQFLAHIREVAAIAHVLRCFPDPDVVHVMGRVDPLEDAEVVETELLLADLATLERRLERLRKEARADRERLPLLEAAEGLYVHLQEGKPARTFPPSEAVARFLKETPLLTAKPVIYVANVAEEDLPDGRGNPQVEAVRRKALEEGAEVVVVSARLEAELAELSGEEARELLAAYGLQESGLQRLARAGYRALDLLTFFTAGEKEVRAWTVRRGTKAPRAAGEIHSDMERGFIRAEVIPWDKLVEAGGWARAKERGWVRLEGKDYEVQDGDVIYVLFNA | soluble |
| MLDANKLQQAVDQAYTQFHSLNGGQNADYIPFLANVPGQLAAVAIVTCDGNVYSAGDSDYRFALESISKVCTLALALEDVGPQAVQDKIGADPTGLPFNSVIALELHGGKPLSPLVNAGAIATTSLINAENVEQRWQRILHIQQQLAGEQVALSDEVNQSEQTTNFHNRAIAWLLYSAGYLYCDAMEACDVYTRQCSTLLNTIELATLGATLAAGGVNPLTHKRVLQADNVPYILAEMMMEGLYGRSGDWAYRVGLPGKSGVGGGILAVVPGVMGIAAFSPPLDEDGNSVRGQKMVASVAKQLGYNVFKG | soluble |
| MLDDCEASGFINDKRYAELLVRSNIARGHGPIRIRQAIAQKGLTKDCIEAALIATDYDWFELAKAKAKAKAIKKYGVPKVTEVKGSQSRELIAKEKAKRVRFLLSQGFSYEQVIYALDYDPLEDNDD | not soluble |
| MLDDVLALIREHDRFFITTHLGPDGDAVGSQLALGRFLEKMGKSVAMVNADEVDYNLDWMPGAGDIAVFDGSLGQHEALAEAEVAFVLDTNDEERIGKVGSLVRDATATTVLVDHHLEPEHWFDVFFVREEAAATGELVYEIIDGLAPDLIDEGIATALYTAIMTDTGSFRYSSVTPALHRSVADILERGGIGPAPIHETIYDRKSMPGLRLLGRMLNRIRLRYNGQLGYSVVTQRMVEDTGASWDDKQGFVNYVLSIEDVKTALLFSETDDGAKISFRSEADVRVDQWARHFGGGGHRNAAGAYVKRPTFEKTIETVIDAASDYIAFDARHAPDDDLSPEDQSYLETLLDDPSDSPLEHHHHHH | not soluble |
| MLDHNRLEEFIEQIRLTPAIWKNREFDISREHMNEIWAHFGHTFDISPKEAEMQWEYLIRLHRFMNRNASLEQFRIEVPSLEDDFTPADTLVAESLAIFLKPTLDELLLISKPSETSV | not soluble |
| MLDINLFREEKGNNPEIIRESQRRRFASVEIVDEIIKLDKEWRQRQFEVDSFRKEFNKLNKQVAQLKIKKEDASEIIQQTEKNKQDSTAKEAEVREAYAALKAKLEQVGNLVHDSVPVDKDEANNLVIKLWGEKRFSTPGLKLKNHVDLVELLGIADTKRGAEIAGARGFFLKGDGLMLNQALINFGLTFLKKRGFTGLQPPFFMRKDVMAKCAQLAQFDEELYKVTGEGDDKYLIATAEQPLCAYHIDEWIHPTELPLRYAGYSSCFRKEAGSHGRDTLGIFRVHQFEKIEQFCITGPNENASWEMLDEMMKNSEDFYQALKLPYQIVSIVSGALNDAAAKKYDLEAWFPSSETFRELVSCSNCTDYQARRLEIRYGQKKSNEQTKQYVHMLNSTLTATERTICCILENYQREDGVDIPEVLQPFMGGETFLPFKAKPVVADTKGKKSKA | soluble |
| MLDKIIEIIMTILPFLGNRKKRKAMAQDVKEFSELVKDQYTFLMEQLEKVLKDYFDLSARVKEMHTEIFSLREQLAQAATLQCVNKECLQRTQSEASISEA | not soluble |
| MLDLHLTMSNSMNYMKAATAYINLEALQHNLQRVKQQAPESKIMAVVKANGYGHGLRHIARHALGADAFGVARIEEALQLRASGVVKPILLLEGFYSPGDLPVLVTNNIQTVVHCEEQLQALEQAQLETPVMVWLKVDSGMHRLGVRPEQYQDFVARLHQCENVAKPLRYMSHFGCADELDKSTTVEQTELFLSLTQGCQGERSLAASAGLLAWPQSQLEWVRPGIIMYGVSPFVEKSAVQLGYQPVMTLKSHLIAVREVKAGESVGYGGTWTSQRDTKIGVIAIGYGDGYPRTAPNGTPVVVNGRRVPIAGRVSMDMLTVDLGPDACDRVGDEAMLWGNELPVEEVAAHIGTIGYELVTKLTSRVEMSYYGAGV | not soluble |
| MLDLIDSAKESVWIVSPYFVPDEEALAVIRRVAMSGVDVRVIIPGKGDRGISFHGSNAYVKTMIEAGAKMYAYADDSFVHAKAMLVDGTRAAIGTANFDVRSFRLNHELMVFLYDESEAMLHLKRDFKKDFEDSRLFTMKDMENKPLLTRIKEVLSSLLSPIL | not soluble |
| MLDRILSIRKSRANRLRESMAKINSQIKEVDGKLDDCEQSIKESIASKQAYCASLVNLDKVSLYKYQIKNNAFDEQKQRLYEKKSSLSKEKRSLLDSQKRTKENLQHVNKSVEKLSFAIKEHYFD | not soluble |
| MLDRIRGQLEQLSSAERKVADLVLEQPYTVIQAAVAEIARNAGVSQPTVIRFCRTVGCSGLPDFKLKLAGSLVTGVPYVHSSVRPEDPTSEIVAKVFDNTVSALLKCRNDVN | not soluble |
| MLDTNMKTQLRAYLEKLTKPVELIATLDDSAKSAEIKELLAEIAELSDKVTFKEDNTLPVRKPSFLITNPGSQQGPRFAGSPLGHEFTSLVLALLWTGGHPSKEAQSLLEQIRDIDGDFEFETYYSLSCHNCPDVVQALNLMAVLNPRIKHTAIDGGTFQNEITERNVMGVPAVFVNGKEFGQGRMTLTEIVAKVDTGAEKRAAEALNKRDAYDVLIVGSGPAGAAAAVYSARKGIRTGLMGERFGGQVLDTVDIENYISVPKTEGQKLAGALKAHVSDYDVDVIDSQSASKLVPAATEGGLHQIETASGAVLKARSIIIATGAKWRNMNVPGEDQYRTKGVTYCPHCDGPLFKGKRVAVIGGGNSGVEAAIDLAGIVEHVTLLEFAPEMKADQVLQDKVRSLKNVDIILNAQTTEVKGDGSKVVGLEYRDRVSGDIHSVALAGIFVQIGLLPNTHWLEGALERNRMGEIIIDAKCETSVKGVFAAGDCTTVPYKQIIIATGEGAKASLSAFDYLIRTKIA | soluble |
| MLEAEVVALKDLIEVAGAVVSTLDLDTVLRHILTSAMRFAETPAGSIALYDGYRNDLTLHAHEGLTPEFVKTERWSVQPGGLTEQVLTRGEILFVNDTADTSFFHNPTALNEGIRSLICVPLMMQNRIVGILYLDDFVPRDFDKERMKLLSVLASFAAMAIDNAQLHARTR | not soluble |
| MLEDLKRQVLEANLALPKHNLVTLTWGNVSAVDRERGVFVIKPSGVDYSIMTADDMVVVSIETGEVVEGAKKPSSDTPTHRLLYQAFPSIGGIVHTHSRHATIWAQAGQSIPATGTTHADYFYGTIPCTRKMTDAEINGEYEWETGNVIVETFEKQGIDAAQMPGVLVHSHGPFAWGKNAEDAVHNAIVLEEVAYMGIFCRQLAPQLPDMQQTLLNKHYLRKHGAKAYYGQ | soluble |
| MLERTQVFVDTSYLLASFYNSWETGARAQLEIDLPEVVGVLGRMIEQQLKQPVQRQMWYDGIPDSGPHRYQRALRTCDGVQLRAGQLIEWGERRTQKAVDTRLVADLVLAGVRGQCSDIVLVSGDADMIPGVQEAANAGLRVHLYGFGWDSMSSQLRHCCDTTTILDPRED | not soluble |
| MLESMTGYGSAERSEKGMKVLVELRSVNNRFAEIGVKLPRQLLSWELEVRELIRASFQRGKISAFVQLQLEEAEALPVTVNPSKVRGYKALLETVRREAEIEAPVTLDHVLRFSEIFEPDHTILEHPDEIWPIAQSALIEAIGNLKEMRRKEGEELAIDFLSRIDEIERTLKEIKEIAAGNLETIRKRLASKISAIAGCDVEYSKDRLEMEIVMAAERLDITEECIRFSSHNKFFIEELNNSSSGSGRKLNFLLQEQLREANTIASKSQNADISQKVVHIKEELEKVREQLQNIE | soluble |
| MLFDLGYVDLQDRSNAEILTHLITKKAILLLGDKQNPADLLAIQDEVQERYLVNFSLFQSMPDFWGLEQNFPIMPLDRLDEEPTRSASIWDITCDSDGEISYSKDKPLFLHDVDVEKENYFLGFFLVGAYQEVLGMKHNLFTHPTEAIISINEKGYEVEGIIEAQSILDTLEDLDYDIHAILEHHHHHH | not soluble |
| MLFMVKFRWETEFKETDIGKIPKDWDVKKIKDIGEVAGGSTPSTKIKEYWGGDIPWITPKDLANYEYIYISRGERNITEKAVKECSLRIFPKGTILLTSRAPIGYVAIAKNPLTTNQGFRNIIPKDGVVSEYLYYLFKTKTMSEYLKDISGGSTFPELKGSTLKEVEIPYPSPEEQQKIATVLSYFDDLIENKKKQNEILEKIALELFKNWFIDFEPFKNEEFVYNDELDKEIPKGWEVKRLGDILKVESGSNAPQREIYFENAKIPFVRVKHLVKGVCIESSDFINELALKDYKMKLYNEKSIIFQKSGESLKEARVNIVPFKFTAVNHLAVIDSSMLNEKHYFIYCLLRFLLKEIVYSVKGTTLPYLKISDIENKYIIIPPQPILQKFHSLVQPLFEKIINNQKQIMVLKKIRDALLPKLVFGELRVEEL | soluble |
| MLFWLMASLWPMKAGVVYADQTEGAITFVSDEKIEGWATAPGIGNGQGNSIRYFMIRIQPKEQSGTAVSYRAEAVEAPADRNGEKKYTFSLDMRGKWPSAPGTMVTYQITVDAYRVLGNGKEDVYFSFPQTPYQYTRQTEASTAKLDFSLSFSQPEYAKPPNGDAQGRLDVTLVPQGAVSGIIRPPIDVVFVMDVSGSMTAMKLQSAKSALQAAVNYFKSNYNQNDRFALIPFSDGVREASVVPFGKYSNVASQLDAILNTGNSLTAGGGTNYSAALSLAKSYFTDPTRKKYIIFLTDGMPTVLNAVDTITYREVKQNFWGGYSYTGNRVTDSLSITYELYSDGRTAGIRFTDNKGYSRRFYSDGQDYVNGWRVSWDNGYSFTYSSIEGKIRADATAVAKTLGMNNITLYSIGFGDNDEVDMDYLRSLSATAGGEARQGTTQNLTALFQQFSQLATTPAITGTIRIPLSSFGGNVAVAENGQVWLDENKQNAYISFSIPYQVGQGTPAPVTIPIPVSFKAKGTYTFTAELTYRDVYGQLQPAVTKTVTVTVKDEAPPSFTGTVKLQGLTNDVTGLIKRGATDGDDNRFRATYSLSLVGYVGNATGTISNVSIVQELPDGISVVPDGKVTTYVENGKRYAKWSFTNQMFDYSQLNKLTLSAQWVMQADFAMNSVQLPPASVTFTDSRYGAKTSTLVPPAERIGMTVRLDDFPNFYYEGNGKGTITKHKFSALSDDIVGQANPNSYGLLPLPVKALEYDPNDDGVLLVTYSNGQTGIGVH | not soluble |
| MLGIYVLSVDRQSPFAQALKVGDTVTEVNGHHFNSMTGYQRYIQRQKVGQRATITYQRNGKTHHVTAKLMRLPTKKAGIGITLEHHHHHH | not soluble |

— the DeepSol protein solubility set
